{"source": "paper doi:10.1101/2024.10.21.619389", "about": "(bioRxiv, 2024)", "proteins": {"B1": {"name": "light-dependent protochlorophyllide oxidoreductase (LPOR) isoform AtPORB (enzyme, Arabidopsis thaliana)", "chain": "QTAATSSPTVTKSVDGKKTLRKGNVVVTGASSGLGLATAKALAETGKWNVIMACRDFLKAERAAKSVGMPKDSYTVMHLDLASLDSVRQFVDNFRRTETPLDVLVCNAAVYFPTAKEPTYSAEGFELSVATNHLGHFLLARLLLDDLKKSDYPSKRLIIVGSITGNTNTLAGNVPPKANLGDLRGLAGGLNGLNSSAMIDGGDFDGAKAYKDSKVCNMLTMQEFHRRFHEETGVTFASLYPGCIASTGLFREHIPLFRALFPPFQKYITKGYVSETESGKRLAQVVSDPSLTKSGVYWSWNNASASFENQLSEEASDVEKARKVWEISEKLVGLA"}}, "biological_target": "the molecule itself", "assay": "negative-stain transmission electron microscopy", "data": [{"protein": "B1", "values": [{"measurement": "binding result", "value": "binds"}]}]}
